Experimental data reported in patent publication US7101851 (dated 2006).
Bridges are numbered along the chain shown (N, C = ends). Where no end group is shown, it is not given here.

Columns and labels:
[1] = molecular target: T1, FcεRI-IgG (UniProt P12319 26-205); assay: g3 phage ELISA on immobilized FcεRI-IgG
T1 construct: extracellular domain; Produced from CHO cells (Genentech); also called FcεRI-Fc; bivalent fusion protein of the extracellular domain of FcεRI and the Fc domain of IgG; not shown: Fc domain of IgG
T1 sequence (looked up): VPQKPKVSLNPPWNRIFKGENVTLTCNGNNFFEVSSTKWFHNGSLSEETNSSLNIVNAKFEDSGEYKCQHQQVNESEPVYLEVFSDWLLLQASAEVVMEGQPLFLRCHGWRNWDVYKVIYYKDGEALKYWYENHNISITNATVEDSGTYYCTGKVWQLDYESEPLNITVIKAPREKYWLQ

[2] = molecular target: T1, FcεRI-IgG; assay: competitive phage ELISA; relative to g3c.42
Method: (§1) This oligonucleotide was annealed with a g3 single stranded DNA phagemid template. The mutagenesis reaction was transformed into XL-1 Blue *E. coli* and plated on LB-carb+ agar plates. Individual colonies were propagated in 5 mL of 2YT broth, tetracycline, carbenicillin and VCSM13 helper phage (Stratagene). Single stranded DNA was isolated from the purified phage particles and sequenced to confirm the insertion of the phage peptide sequence. 25 mL preparations of g3 phage clones were propagated overnight and purified by PEG precipitation. After resuspension of the phage pellet in 1.0 mL of PBS, it was serially diluted 1/3 and incubated with immobilized FcεRI-IgG 2 ug/mL in a 96 well Maxisorp microtiter plate for 1 hour at room temperature. The wells were washed 10× with PBST then incubated with 100 uL of anti M13 phage HRP as described above. An OD(492) value corresponding to less than 50% binding was selected and the purified phage clones were diluted to yield this normalized level of signal. […] The mixture was then transferred to 96 well microtiter dishes containing immobilized FcεRI-IgG. After a 1-hour incubation period, the plates were washed 10 times, incubated with anti M13-HRP conjugated antibody and developed with OPD as described above.
(§2) In addition, stepwise N-terminal and C-terminal truncations of the peptide sequence were constructed. All constructs were made by designing oligonucleotides corresponding to the desired substitution or truncation, with an additional 18 bp of DNA overlapping the peptide or g3 phage DNA sequence. The phage clones were propagated overnight following infection in XL-1 Blue *E. coli*. Purified phage preparations were titered and assayed for binding to immobilized receptor. FcεRI-IgG competition assays were performed as described above.

[3] = molecular target: T1, FcεRI-IgG; assay: competitive phage ELISA: g3 peptide-phage on immobilized FcεRI-IgG, soluble FcεRI-IgG titrated
Method: as §1, §2

[4] = molecular target: T2, extracellular domain of the alpha subunit of the human FcεRI (aa 1-176), produced in baculovirus infected … (human, UniProt P12319 26-201, N-linked carbohydrate (NAG on Asn21 seen in the crystal); derivatised with PDEA for thiol coupling to the chip in the biosensor assay); assay: SPR biosensor (BIAcore), peptide over immobilized FcεRIα; Kd (apparent) calculated from kon and koff
T2 construct: range 1-176; Residues 1-176 are probably counted without the signal peptide; also called FcεRIα; soluble FcεRI
T2 sequence (looked up): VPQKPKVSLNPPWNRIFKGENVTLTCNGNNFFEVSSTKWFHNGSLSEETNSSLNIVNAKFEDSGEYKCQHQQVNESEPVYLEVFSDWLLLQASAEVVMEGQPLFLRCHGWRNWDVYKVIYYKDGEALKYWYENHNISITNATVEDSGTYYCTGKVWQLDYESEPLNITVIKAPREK
Method: *peptide is a dimer. SEQ ID NO: describes each monomer of the dimer. "ava" = amino-valeric acid Several peptides were also tested in a direct-binding assay using a surface plasmon resonance biosensor (Lofas & Johnsson, *J. Chem. Soc. Commun.* 21, 1526–1528 (1990)). FcεRIα, produced in baculovirus infected insect cells, was immobilized by the surface thiol method (BIAcore Methods Manual Supplement 5a, BIAcore, Inc., Piscataway, N.J.). Briefly, receptor was reacted with 2-(2-pyridinyldithio)ethaneamine hydrochloride (PDEA; Natake & Swaisgood, *J. Biochem.* 74, 77–86 (1973)), desalted into 10 mM sodium acetate (pH 4.8) and stored in aliquots at −80° C. Thawed PDEA-receptor was injected over carboxymethyl-dextran (B1 or CM5, BIAcore, Inc.) biosensor chips preactivated with N-ethyl-N'-(3-dimethylaminopropyl)-carbodiimide hydrochloride (EDC) and N-hydroxysuccinimide (NHS), cystamine, and DTT. […] Serial dilutions of peptide in running buffer (phosphate-buffered saline containing 0.05% Tween-20, 0.01% sodium azide) were injected over the immobilized receptor, and the net amount of peptide bound at steady-state was measured as the net change in response (RU) at a point just prior to termination of peptide injection, compared to a running-buffer baseline. […] In the case of IGE134 (SEQ ID NOS:), the value shown indicates the Kd calculated from the rate constants, $kon$ and $koff$. […]

[5] = molecular target: T3, extracellular domain of the alpha subunit of the human FcεRI (aa 1-176), baculovirus-derived (human, UniProt P12319 26-201); assay: competitive phage ELISA: peptide-phage with soluble FcεRI on FcεRI-coated plate
T3 construct: range 1-176; also called soluble FcεRI; baculovirus-derived FcεRI
T3 sequence (looked up): T2 sequence (looked up)
Method: Phage ELISA assays were carried out as described (Lowman, 1998, supra), using Nunc Maxisorp™ plates coated with a 2 μg/mL solution of baculovirus-derived FcεRI. Peptide-phage were pre-incubated for 5–10 min with serial dilutions of receptor, then added to the receptor-coated plate. After incubation for 1 h at room temperature, the plates were washed and an anti-phage HRP-conjugated antibody (Pharmacia) was added. After further incubation for 20 min, plates were again washed and developed using the substrate OPD (Sigma). Optical density at 492 nm was read and plotted as a function of FcεRI concentration to determine an $IC50$ of inhibition by each peptide-phage variant.

[6] = molecular target: T4, alpha subunit of the human FcεRI receptor expressed on cells (human, UniProt P12319 26-257); assay: cell-based or functional assay
T4 sequence (looked up): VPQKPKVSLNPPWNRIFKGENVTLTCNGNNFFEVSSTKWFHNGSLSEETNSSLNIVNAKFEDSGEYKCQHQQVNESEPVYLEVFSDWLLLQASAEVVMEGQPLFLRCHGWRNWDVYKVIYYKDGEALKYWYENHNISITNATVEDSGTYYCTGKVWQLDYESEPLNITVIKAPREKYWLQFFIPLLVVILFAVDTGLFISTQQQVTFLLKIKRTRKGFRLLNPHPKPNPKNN

[7] = molecular target: T4, alpha subunit of the human FcεRI …; assay: inhibition of 125I-IgE binding to CHO cells expressing human FcεRI alpha
Method: (§3) To determine the ability of peptides to inhibit IgE binding to FcεRI, a cell-based binding assay was used with radiolabeled IgE. Chinese hamster ovary cells expressing the alpha subunit of the human FcεRI receptor were cultured overnight in Falcon 96 well microtiter plates at a concentration of 5 ×10^4 cells per well. The following day the cells were rinsed three times with PBS and then once with F12/DMEM. Peptide stocks were reconstituted in 100 mM Hepes buffered water, pH 7.2, at a concentration of 5 mg/mL. Working concentrations of the peptide were diluted in assay buffer (see below). 75 uL of a desired concentration of peptide was added to the top row of a separate 96 well microtiter plate and serially diluted 1:3 in 50 uL of the assay buffer (F12/DMEM, 1% BSA, 0.05% NaN_3 and 0.025 mM Hepes pH 7.2). Starting concentrations ranged from 50–500 uM. Next, 50 uL of the diluted peptide was transferred to the 96 microtiter well plate containing a monolayer of CHO FcεRI+ cells. […] Cells were
Alanine substitutions in IGE063 (SEQ ID NO:49) were used to assess sidechain contributions. The P9A (IGE070, SEQ ID NO:52) substitution had the largest impact with a >500× reduction in binding. […] Clearly the alanine substitutions at G8, P9, W10, G11 and W12 all had major impacts on binding FcεRI.

[8] = molecular target: T4, alpha subunit of the human FcεRI …; assay: inhibition of 125I-IgE binding to CHO cells expressing FcεRI alpha; freshly dissolved peptide (monomer)
Method: as §3, with “Cells were […]” for “Cells were”

[9] = molecular target: T4, alpha subunit of the human FcεRI …; assay: inhibition of 125I-IgE binding to CHO cells expressing FcεRI alpha; 7-10 days after dissolving, when the homodimer had formed
Method: as §3
The size of each peptide was confirmed by mass spectrometry. […] This increase over time was not observed with the other peptides.

[10] = molecular target: alpha subunit of the human FcεRI receptor expressed on cells (human) (UniProt P12319); assay: IgE inhibition assay (Table 9)

B1: g3c.21 peptide-phage (peptide)
peptide: CTEGPWGWVCMAAD
modifications: not fully specified; cysteine pairing not given here
notes: Monovalent g3p phage display; not shown: fused to M13 gene-3 protein (g3p) on phage
binding result [1]: no binding

B2: g3c.29 peptide-phage (peptide)
peptide: NLPRCTEGPWGWVCMAA
modifications: not fully specified (bridges); cysteine pairing not given here
notes: as for B1
Relative (IC50) (fold weaker) [2]: 1 fold
IC50 [3]: 5 nM

B3: g3c.31 peptide-phage (peptide)
peptide: NLPRCTEGPWGWVCMA
modifications: not fully specified (bridges); cysteine pairing not given here
notes: as for B1
Relative (IC50) (fold weaker) [2]: 1 fold
IC50 [3]: 6.1 nM

VQCPHFCYELDYELCPDVCYV-NH2 (disulfide 7-15, 3-19, also called peptide) [IGE134]
Kd [4]: 32 nM

B4: IGE120-phage (IVCPRLCYVGGKALCPDVCYV displayed as a fusion to g3p of bacteriophage M13) (peptide)
peptide: IVCPRLCYVGGKALCPDVCYVGGGSGGGGSGSGDY
notes: not shown: g3p of bacteriophage M13, continuing after residue 257 of the mature protein
Relative IC50 [5]: 1 fold, relative to IGE120-phage

NLPRCTEGPWGWVCMAAD (disulfide 5-14 (inferred), also called optimized peptide) [synthetic peptide NLPRCTEGPWGWVCMAAD (SEQ ID NO:18)]
IC50 of inhibition of ragweed induced histamine release (RBL-48 cells, ragweed specific IgE) [6]: 10000 nM
IC50 [7]: 1000 nM
fold improvement over the … (SEQ ID NO:1) peptide [7]: > 160 fold
fold improvement over the … (SEQ ID NO:8) peptide [7]: 40 fold

B5: g3c.34 peptide-phage (peptide)
peptide: NLPRCTEGPWGWVCM
modifications: not fully specified; cysteine pairing not given here
notes: not shown: fused to M13 gene-3 protein (g3p) on phage
Relative (IC50) (fold weaker) [2]: 3 fold
IC50 [3]: 14.6 nM

B6: g3c.17 peptide-phage (peptide)
peptide: RCTEGPWGWVCMAAD
modifications: not fully specified; cysteine pairing not given here
notes: as for B1
binding result [1]: no binding

B7: IGE037 (peptide)
peptide: ALCPAVCYV-NH2
modifications: disulfide 3-7 (inferred); also: reshuffles over 3-12 days into disulfide-linked homodimer, held to be active form
notes: Made as a cyclic monomer
IC50 [8]: ~300000 nM
IC50 [9]: 25000 nM

NLPRCTEGPWGWVCM (disulfide 5-14 (inferred)) [peptide NLPRCTEGPWGWVCM (SEQ ID NO:27)]
IC50 of inhibition of ragweed induced histamine release (RBL-48 cells, ragweed specific IgE) [6]: 13000 nM

ALCPAVCYV-NH2 (also: antiparallel disulfide-linked homodimer, interchain C3-C7' and C7-C3') [IGE089]
IC50 of inhibition of ragweed induced histamine release (RBL-48 cells, 0.1 nM ragweed specific human IgE) [6]: 8000 nM

B8: g3c.1 peptide-phage (peptide)
peptide: LPRCTEGPWGWVCMAAD
modifications: not fully specified; cysteine pairing not given here
notes: as for B1
Relative (IC50) (fold weaker) [2]: 1 fold
IC50 [3]: 3 nM

B9: IGE143 (peptide)
peptide: VQCPHFCYVGGHALCADVCYVGR
modifications: disulfide (positions not given here); also: two intramolecular disulfide bonds, pairing not given here
fold loss in activity against its control peptide [10]: > 100 fold
